B1: 10-35 (ssRNA)
RNA: GGGAGAUAAGAAUAAACGCUCAAAUCCAAAUUCUGGUCAUGAGGCGCUGCAGAUACUGCUGCGUUCGACAGGAGGCUCACAACAGGC
modifications: 2'-F pyrimidines
B2: 10-38 (ssRNA)
RNA: GGGAGAUAAGAAUAAACGCUCAAUCUGCGGACGGUGAGGUUAAGUUGCAACGACUGCUUGGCGUUCGACAGGAGGCUCACAACAGGC
modifications: 2'-F pyrimidines
B3: 10-56 (ssRNA)
RNA: GGGAGAUAAGAAUAAACGCUCAACCUUAGGGCUCCCAAAAAUCGGGCCCGUCGGGCCGAUCACUUCGACAGGAGGCUCACAACAGGC
modifications: 2'-F pyrimidines
B4: 10-48 (ssRNA)
RNA: GGGAGAUAAGAAUAAACGCUCAAGAGUUCCCUGUUGACUCGCUCUCCUGACCCUUCGACAGGAGGCUCACAACAGGC
modifications: 2'-F pyrimidines
B5: 10-31 (ssRNA)
RNA: GGGAGAUAAGAAUAAACGCUCAAGGGUUCCUGAUUGACCCUGUCUCUAGACCCUUCGACAGGAGGCUCACAACAGGC
modifications: 2'-F pyrimidines
B6: 10-18 (ssRNA)
RNA: GGGAGAUAAGAAUAAACGCUCAACGUGAUUCCUACCAUCAGGUACCUAUCUUGUUCGACAGGAGGCUCACAACAGGC
modifications: 2'-F pyrimidines
B7: 8-215 (ssRNA)
RNA: GGGAGGACGAUGCGGCGUGAGCCUAUUUAUGUCAUCAUGUCUGGUCAGACGACUCGCCCGA
modifications: 2'-F pyrimidines
B8: 8-222 (ssRNA)
RNA: GGGAGGACGAUGCGGUGUGAACCUAUUUAUGCCAUUAUGUCUGUGCAGACGACUCGCCCGA
modifications: 2'-F pyrimidines
B9: 10-29 (ssRNA)
RNA: GGGAGAUAAGAAUAAACGCUCAAUCUGUUGGCGUCGUUCUCCUGACCCUCCUCUUCGACAGGAGGCUCACAACAGGC
modifications: 2'-F pyrimidines
B10: 10-53 (ssRNA)
RNA: GGGAGAUAAGAAUAAACGCUCAAGGCCUCCAACCGCUAAAGGUUCCAUUCUUGUUCGACAGGAGGCUCACAACAGGC
modifications: 2'-F pyrimidines
B11: 10-11 (ssRNA)
RNA: GGGAGAUAAGAAUAAACGCUCAACGCCUGGACCGUUUGUUUAUCCCCGUAGUCUUCGACAGGAGGCUCACAACAGGC
modifications: 2'-F pyrimidines
B12: 10-58 (ssRNA)
RNA: GGGAGAUAAGAAUAAACGCUCAAGGGGAGGCCCUUCAGCCGUCUCCUUGACCCUUCGACAGGAGGCUCACAACAGGC
modifications: 2'-F pyrimidines
B13: 10-37 (ssRNA)
RNA: GGGAGAUAAGAAUAAACGCUCAAGUCUGAGUCCGUAGGGCGAUUUGUGUCCCUUCGACAGGAGGCUCACAACAGGC
modifications: 2'-F pyrimidines
B14: 10-49 (ssRNA)
RNA: GGGAGAUAAGAAUAAACGCUCAACCCGACCUCCUGUAACUGGUUGAGGCACUAUUCGACAGGAGGCUCACAACAGGC
modifications: 2'-F pyrimidines
B15: 10-16 (ssRNA)
RNA: GGGAGAUAAGAAUAAACGCUCAAUACAGCGUGUUGGUCCCGGACGGGGACUUAUUUCGACAGGAGGCUCACAACAGGC
modifications: 2'-F pyrimidines
B16: 8-102 (ssRNA)
RNA: GGGAGGACGAUGCGGCGAGUGCCUGUUUAUGUCAUCGUCCGUCGUCAGACGACUCGCCCGA
modifications: 2'-F pyrimidines
B17: 10-13 (ssRNA)
RNA: GGGAGAUAAGAAUAAACGCUCAAGAUCUGUUGGCGUGUCUACCCGACCCUCCUUUCGACAGGAGGCUCACAACAGGC
modifications: 2'-F pyrimidines
B18: 10-36 (ssRNA)
RNA: GGGAGAUAAGAAUAAACGCUCAACGUUAGCAUCUGAACGAUGCCCAGCCUCAAUUCGACAGGAGGCUCACAACAGGC
modifications: 2'-F pyrimidines
B19: 10-1 (ssRNA)
RNA: GGGAGAUAAGAAUAAACGCUCAAAGUGAUGUGAGAGCGUGCCUCUAGUCGGUGUUCGACAGGAGGCUCACAACAGGC
modifications: 2'-F pyrimidines
B20: 10-63 (ssRNA)
RNA: GGGAGAUAAGAAUAAACGCUCAAUGUGAUGUGAGGGCGUGCUUCCUAACGGUGUUCGACAGGAGGCUCACAACAGGC
modifications: 2'-F pyrimidines
B21: 10-62 (ssRNA)
RNA: GGGAGAUAAGAAUAAACGCUCAAGUUAGACUCAACAUGAGUCCCAGCCUCAAUUCGACAGGAGGCUCACAACAGGC
modifications: 2'-F pyrimidines
B22: 10-23 (ssRNA)
RNA: GGGAGAUAAGAAUAAACGCUCAAGUCUGAGUUGGACACAACGCAUUGAGACCCUUCGACAGGAGGCUCACAACAGGC
modifications: 2'-F pyrimidines
B23: 10-57 (ssRNA)
RNA: GGGAGAUAAGAAUAAACGCUCAACGAGCCUCCUACCGUUUAGGUACCAUCUUGUUCGACAGGAGGCUCACAACAGGC
modifications: 2'-F pyrimidines
B24: 10-27 (ssRNA)
RNA: GGGAGAUAAGAAUAAACGCUCAAUUAGCCUCCGACCGUAAGGUCCUUUUCUUGUUCGACAGGAGGCUCACAACAGGC
modifications: 2'-F pyrimidines
B25: 10-7 (ssRNA)
RNA: GGGAGAUAAGAAUAAACGCUCAAUGCCUUAAGAGCGGAACUCCCUGACCCACCUUCGACAGGAGGCUCACAACAGGC
modifications: 2'-F pyrimidines

The source of these data is patent US6344321, “Nucleic acid ligands which bind to hepatocyte growth factor/scatter factor (HGF/SF) or its receptor c-met” (Gilead Sciences, Inc.).

T1 sequence (P14210 32-494, chain 1 of 2): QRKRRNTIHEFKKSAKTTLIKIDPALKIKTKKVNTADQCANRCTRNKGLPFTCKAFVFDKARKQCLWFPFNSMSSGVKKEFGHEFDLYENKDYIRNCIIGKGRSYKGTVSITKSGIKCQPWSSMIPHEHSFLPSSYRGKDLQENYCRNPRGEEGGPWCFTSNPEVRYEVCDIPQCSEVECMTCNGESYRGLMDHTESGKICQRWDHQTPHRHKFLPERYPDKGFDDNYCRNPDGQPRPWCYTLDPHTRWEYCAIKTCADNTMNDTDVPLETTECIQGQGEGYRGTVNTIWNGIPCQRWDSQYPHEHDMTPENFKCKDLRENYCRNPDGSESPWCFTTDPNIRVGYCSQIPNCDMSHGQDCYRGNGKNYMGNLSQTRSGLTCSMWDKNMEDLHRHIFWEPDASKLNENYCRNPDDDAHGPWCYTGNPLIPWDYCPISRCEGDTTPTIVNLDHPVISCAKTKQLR
T1 sequence (P14210 495-728, chain 2 of 2): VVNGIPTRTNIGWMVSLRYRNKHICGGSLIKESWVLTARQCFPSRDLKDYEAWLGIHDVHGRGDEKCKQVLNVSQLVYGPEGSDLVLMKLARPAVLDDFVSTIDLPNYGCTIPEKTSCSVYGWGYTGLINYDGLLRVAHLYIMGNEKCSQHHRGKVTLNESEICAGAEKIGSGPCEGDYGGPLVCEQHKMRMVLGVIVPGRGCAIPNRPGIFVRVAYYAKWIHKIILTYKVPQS

For one data set, the target named is T1, HGF (hepatocyte growth factor/scatter factor) (UniProt P14210;P14210 P14210:32-494,P14210:495-728). Nature of the data set: filter; one or two 5' G. The note with it: tags: R&D Systems. On the procedure:
(§1) In binding reactions, RNA concentrations were kept as low as possible—between 1 and 20 pM—to ensure equilibrium in conditions of protein excess. Oligonucleotides were incubated for 15 minutes at 37° C. with varying amounts of the protein in 43 µl of the binding buffer. Thirty-two microliters of each binding mixture placed on pre-wet 0.45 µm nitrocellulose filters under suction. Each well was immediately washed with 0.5 ml binding buffer. The amount of radioactivity retained on the filters was quantitated by imaging. The radioactivity that bound to filters in the absence of protein was used for background correction. The percentage of input oligonucleotide retained on each filter spot was plotted against the corresponding log protein concentration. The nonlinear least square method was used to obtain the dissociation constant (K_d; reference Jellinek, Lynott et al. 1993, Proc. Natl. Acad. Sci. USA. 90:11227–31).
Molecule GGUGUGAACCUGUUUAUGCCAUCUCGAGUCCCCA (ssRNA, 2'-F pyrimidines) [Tr20] returned a Kd of 3.4 nM.

In the case of GGAGUGAUCCUAUUUAUGCCGUCGCUUCUCGCCA (ssRNA, 2'-F pyrimidines) [Tr44], the dissociation constant (Kd) was found to be 6.5 nM.

In turn, GGGAGUUAUAUUUCGUCACCCGUUCCUUUGCCCCA (ssRNA, 2'-F pyrimidines) [Tr14] yielded a Kd of 2.2 nM. GGUGGGAACCUAUUUAUGUCAUCGUCUGUGCCCA (ssRNA, 2'-F pyrimidines) [Tr70]: the Kd turned out to be 2.4 nM. Still for that read-out and setting: under GGUGAUAACCUAUUUAUGACGUCGUGGCUCCCCA (ssRNA, 2'-F pyrimidines) [Tr42] stands 6.1 nM; under GGUGGGAACCUAUUUAUGUCAUCUCCGUCCCCA (ssRNA, 2'-F pyrimidines) [Tr45], 1.7 nM.

Regarding GGUCAGAAUGACUUUCAUAGCUCGCUUUCCCCCA (ssRNA, 2'-F pyrimidines) [Tr71], the affinity, expressed as Kd, was 7.7 nM. Against the preceding molecule, the Kd is about 4.5-fold higher. As to GGGUGACUCAAAAUGGUGAUCCUCGUUUCCGCCA (ssRNA, 2'-F pyrimidines) [Tr4], the affinity, expressed as Kd, was 1.4 nM. This Kd lies about 5.5-fold lower than the previous one.

With GGCGUGAGCCUAUUUAUGUCAUCAUGUCUGUGCA (ssRNA, 2'-F pyrimidines) [Tr6], the Kd came out at 9 nM. GGAUUGAUUCACUGCAUCCUUGACUCUUCCCCCA (ssRNA, 2'-F pyrimidines) [Tr1] yielded a Kd of 7.3 nM. GGGCGGCUCGAUGUCGUCUUAUCCCUUUGCCCCA (ssRNA, 2'-F pyrimidines) [Tr17]: the Kd is 3 nM. Still for that read-out and setting: under GGGGUGACCCUUUUUAUGACAUCGCGUCUGGCCA (ssRNA, 2'-F pyrimidines) [Tr28] stands 4 nM; under GGUGAUCACCUGUUUAUGCCAUCGUUCUGGGCCA (ssRNA, 2'-F pyrimidines) [Tr48], 1.8 nM; under GGUGAAUUCCUCUGGCUGAAAAUGACUUGUGCCA (ssRNA, 2'-F pyrimidines) [Tr31], 9.2 nM. On the same count and under the same terms, under GGGUUUGAGUGACGAUCGUCUUGUCCCAUGUGCA (ssRNA, 2'-F pyrimidines) [Tr15] stands 8.8 nM. Still for that read-out and setting: as for GGACAGUUUGUCUUCUAUAGCUCGUCGCCCCCA (ssRNA, 2'-F pyrimidines) [Tr59], the figure is 7.2 nM; as for GGCAGACGACUCGCCCGAAGGACGAUGCGGCA (ssRNA, 2'-F pyrimidines) [Tr5], 28 nM; as for GGCGGUGUGAACCUGUUUAUGUCCGCGUACCCCA (ssRNA, 2'-F pyrimidines) [Tr7], 0.67 nM.

Another data set addresses T1, HGF (hepatocyte growth factor/scatter …). In words: filter; 40N8 hitchhiker. The note with it: tags: R&D Systems. On the procedure:
as §1
As for B1, the equilibrium dissociation constant (Kd) turned out to be 2.33 nM.

For B2, the equilibrium dissociation constant (Kd) was 7.38 nM. The same measure, in the same setting: as for B3, the figure is 0.28 nM.

The target is the same in another data set. In words: filter; HBSMC, 37C. The note with it: tags: R&D Systems. On the procedure: as §1
The molecule B4 yielded an equilibrium dissociation constant (Kd) of 0.31 nM. On the same count and under the same terms, as for B5, the figure is 1.9 nM; as for B6, 0.3 nM. In the case of B7, the Kd was 0.077 nM. In turn, B8 came in with a Kd of 0.13 nM. B9 yielded a Kd of 1.75 nM.

Molecule B10 displayed a Kd of 0.31 nM. In turn, B11 displayed an equilibrium dissociation constant (Kd) of 0.61 nM. For the molecule B12, the Kd came out at 0.44 nM. Consider B13, for which the Kd turned out to be 3.05 nM. B14 showed a Kd of 0.24 nM. Still for that read-out and setting: under B15 stands 0.21 nM. The same measure, in the same setting: under B16 stands 0.06 nM.

For the molecule B17, the dissociation constant Kd turned out to be 0.72 nM. Still for that read-out and setting: under B18 stands 1.94 nM; under B19, 0.094 nM; under B20, 0.19 nM. Still for that read-out and setting: under B21 stands 0.44 nM. Consider B22, for which the dissociation constant Kd turned out to be 0.33 nM. The molecule B23 yielded a dissociation constant (Kd) of 0.14 nM. On the same count and under the same terms, under B24 stands 0.83 nM; under B25, 1.45 nM.

For orientation: Kd means the equilibrium constant for the complex coming apart.
